In patent US20230235054A1 (BIOATLA, published 2023):
Residue numbers refer to the chain shown, from its start.

T1: huNectin4-His (human, UniProt Q96NY8 32-349)
T1 construct: Immobilized on the SPR chip; also called humanNectin4; human Nectin4; not shown: His tag
T1 sequence (looked up): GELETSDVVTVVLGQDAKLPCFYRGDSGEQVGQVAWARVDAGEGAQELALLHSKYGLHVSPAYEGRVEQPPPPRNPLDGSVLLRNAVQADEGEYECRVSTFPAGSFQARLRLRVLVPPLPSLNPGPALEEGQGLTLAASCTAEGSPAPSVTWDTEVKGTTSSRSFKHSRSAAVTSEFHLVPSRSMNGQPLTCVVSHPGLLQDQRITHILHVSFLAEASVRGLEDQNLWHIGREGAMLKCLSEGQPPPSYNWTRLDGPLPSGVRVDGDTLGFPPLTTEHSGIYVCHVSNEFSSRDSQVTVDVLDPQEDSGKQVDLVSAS

T2: RatNectin4-His (rat, UniProt D3ZET1 31-348)
T2 construct: Immobilized on the SPR chip; not shown: His tag
T2 sequence: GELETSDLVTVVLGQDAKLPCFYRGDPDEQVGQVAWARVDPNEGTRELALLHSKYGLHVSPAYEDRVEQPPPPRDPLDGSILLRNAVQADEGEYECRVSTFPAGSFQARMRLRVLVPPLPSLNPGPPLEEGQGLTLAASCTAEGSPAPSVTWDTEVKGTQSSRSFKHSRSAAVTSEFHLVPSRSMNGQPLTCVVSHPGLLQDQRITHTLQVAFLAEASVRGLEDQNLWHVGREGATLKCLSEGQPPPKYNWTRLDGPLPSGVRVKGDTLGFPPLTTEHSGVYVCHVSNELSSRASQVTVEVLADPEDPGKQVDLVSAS

T3: cyno Nectin-4 on cells (cyno, UniProt A0A2K5WES1 32-510)
T3 construct: whole, on cells; also called HEK293 cells expressing cyno Nectin-4; cyno Nectin-4 cells
T3 sequence: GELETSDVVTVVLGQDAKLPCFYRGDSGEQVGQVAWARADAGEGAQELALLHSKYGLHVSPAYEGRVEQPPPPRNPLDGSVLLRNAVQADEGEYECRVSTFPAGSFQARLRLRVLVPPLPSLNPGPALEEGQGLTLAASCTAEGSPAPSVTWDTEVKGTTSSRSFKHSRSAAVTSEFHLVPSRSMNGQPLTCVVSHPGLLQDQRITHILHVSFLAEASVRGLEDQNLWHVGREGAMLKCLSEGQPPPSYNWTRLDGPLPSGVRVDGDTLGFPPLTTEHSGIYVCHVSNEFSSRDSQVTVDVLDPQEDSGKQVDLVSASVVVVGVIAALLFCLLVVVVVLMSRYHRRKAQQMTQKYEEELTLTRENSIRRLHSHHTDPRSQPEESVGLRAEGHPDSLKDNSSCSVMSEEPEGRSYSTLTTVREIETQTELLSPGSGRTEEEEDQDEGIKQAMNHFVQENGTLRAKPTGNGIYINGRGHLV

B1: BAP-143-wildtype (antibody, V domains shown)
VH: EVQLVESGGGLVQPGGSLRLSCAASGFTFSSYNMNWVRQAPGKGLEWVSYISSSSSTIYYADSVKGRFTISRDNAKNSLSLQMNSLRDEDTAVYYCARAYYYGMDVWGQGTTVTVSS
VL: DIQMTQSPSSVSASVGDRVTITCRASQGISGWLAWYQQKPGKAPKFLIYAASTLQSGVPSRFSGSGSGTDFTLTISSLQPEDFATYYCQQANSFPPTFGGGTKVEIK
notes: 150 kDa used in SPR; also called BAP143-00-00; benchmark (BM)
B2: BAP-143-06-33-03 (antibody, V domains shown)
VH: QVQLVQSGAEVKKPGASVKVSCKASGFTFSSYNMNWVRQARGQRLEWIGYISSSSSTIYYADSVKGRFTISRDNSKNTLYLQMNSLRAEDTAVYYCARAYYYGMDKWGQGTLVTVSS
VL: B1 VL with F94E
notes: Used as a conjugate with a linker payload (CAB ADC)
B3: BAP-143-06-24-16 (antibody, V domains shown)
VH: EVQLVQSGAEVKKPGATVKISCKVSGFTFSSYNMNWIRQSPSRGLEWLGYISSSSSTIYYADSVKGRFTISRDNSKNTLYLQMNSLRAEDTAVYYCARAYYYGDDVWGQGTLVTVSS
VL: B1 VL with R24H
notes: as for B2
B4: BAP-143-06-33-16 (antibody, V domains shown)
VH: B3 VH
VL: B1 VL with L33E
notes: as for B2
B5: BAP-143-00-01 (antibody, V domains shown)
VH: B1 VH
VL: B1 VL with L33E
notes: as for B2
B6: BAP-143-07-03-12 (antibody, V domains shown)
VH: B1 VH with V106K
VL: B1 VL with L33E
notes: as for B2

How the values were obtained:
huNectin4-His = target: T1, huNectin4-His; assay: SPR, huNectin4-His immobilized, pH 6.5
Procedure: Binding kinetics of anti-Nectin4 antibodies were measured by surface plasmon resonance using a SPR2/4 instrument (Sierra Sensors, Hamburg, Germany) and flat amine sensor chips. The SPR sensor contained four flow cells (FC1-FC4), each of which was addressed individually or in groups. huNectin4-His was immobilized in FC2, and cynoNectin4-mFc in FC4. No protein was immobilized in FC1 and FC3 which were used as control surfaces for FC2 and FC4, respectively.
(§1) All injections were done at a flow rate of 25 μL/min at 25° C. The sensor surface was activated with 1-ethyl-3-(3-dimethylaminopropyl)-carbodiimide (EDC) and N-hydroxysuccinimide (NHS) (200 mM/50 mM) for 480 seconds. HuNectin4-His (2 μg/mL in 10 mM NaAc, pH4.5) was injected for 480s and the surface was inactivated by injecting 1M ethanolamine-HCl for 480s. CynoNectin4 was immobilized using the same conditions as described for huNectin4-His, except that the cynoNectin4 was diluted into 10 mM NaAc buffer having pH 5.0. The control surface was activated and deactivated using the same conditions, but without injecting protein. PBST buffer (PBS pH 7.4 with 0.05% TWEEN20™) was used as running buffer for the surface preparation. The running solution was switched to PBST with 30 mM sodium bicarbonate with the pH adjusted as indicated in the figures before the analyte injections. The instrument was equilibrated with the running solution for one hour before the first analyte injection.
(§2) The off-rate was measured for 360s. The chip surface was regenerated after each cycle of interaction analysis by injecting 6 μL of 10 mM glycine (pH 2.0). Flow cells 1 and 3 without immobilized protein were used as control surfaces for reference subtraction.

RatNectin4-His = target: T2, RatNectin4-His; assay: SPR, RatNectin4-His immobilized, pH 7.4
Procedure: as §1, §2
In addition, data with buffer only as analyte (0 nM analyte) was subtracted from each run. Double subtracted data was fitted with the provided analysis software Analyzer R2 (Sierra Sensors) using a 1:1 binding model. A molecular weight of 150 kDa was used to calculate the molar concentrations of the analytes. RatNectin4-His was immobilized in FC3 using the same conditions as described for cynoNectin4.

cyno Nectin-4 on cells = target: T3, cyno Nectin-4 on cells; assay: FACS, HEK293 cells expressing cyno Nectin-4

Binder	Kd (huNectin4-His)	Kd (RatNectin4-His)	Ratio (pH 7.4/6.0) of EC50 (cyno Nectin-4 on cells)	koff (huNectin4-His)	kon (huNectin4-His)	koff (RatNectin4-His)	kon (RatNectin4-His)
B1	0.102 nM	0.135 nM	–	–	–	–	–
B2	–	–	2.7	–	–	–	–
B3	0.00487 nM	0.171 nM	1.4	9.92e-06 s⁻¹	2.04e+06 M⁻¹ s⁻¹	0.000178 s⁻¹	1.04e+06 M⁻¹ s⁻¹
B4	0.0282 nM	1.94 nM	1.5	5.94e-05 s⁻¹	2.11e+06 M⁻¹ s⁻¹	0.000261 s⁻¹	135000 M⁻¹ s⁻¹
B5	0.785 nM	2.42 nM	2	0.000474 s⁻¹	605000 M⁻¹ s⁻¹	0.000875 s⁻¹	361000 M⁻¹ s⁻¹
B6	0.641 nM	1.31 nM	1.8	0.000483 s⁻¹	754000 M⁻¹ s⁻¹	0.000731 s⁻¹	557000 M⁻¹ s⁻¹
